# Laboratory results reported in US20230212305A1, “ANTI-ABCG2 ANTIBODIES AND USES THEREOF” (Kenjockety Biotechnology, Inc., priority 2020, published 2023).
# T1: ABCG2 (Homo sapiens, UniProt Q9UNQ0)
# T1 construct: expressed in transfected cells
# T1 sequence (Q9UNQ0 1-655): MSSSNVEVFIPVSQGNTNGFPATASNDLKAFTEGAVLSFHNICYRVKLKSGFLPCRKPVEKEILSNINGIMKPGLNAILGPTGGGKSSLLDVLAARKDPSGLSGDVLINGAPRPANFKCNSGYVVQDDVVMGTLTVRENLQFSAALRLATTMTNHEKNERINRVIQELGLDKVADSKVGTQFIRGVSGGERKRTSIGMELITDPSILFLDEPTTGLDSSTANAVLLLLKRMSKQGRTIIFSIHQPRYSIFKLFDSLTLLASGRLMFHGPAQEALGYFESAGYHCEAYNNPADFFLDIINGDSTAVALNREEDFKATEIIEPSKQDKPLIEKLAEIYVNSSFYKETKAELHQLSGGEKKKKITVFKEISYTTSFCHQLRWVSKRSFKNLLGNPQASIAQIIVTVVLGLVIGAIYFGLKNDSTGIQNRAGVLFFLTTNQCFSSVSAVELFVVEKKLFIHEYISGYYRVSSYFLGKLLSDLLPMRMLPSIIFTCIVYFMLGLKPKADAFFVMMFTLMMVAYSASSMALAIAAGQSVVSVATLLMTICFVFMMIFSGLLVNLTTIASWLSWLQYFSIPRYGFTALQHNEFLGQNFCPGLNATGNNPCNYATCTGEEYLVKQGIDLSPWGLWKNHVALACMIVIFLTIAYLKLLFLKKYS
# B1: G2.636 rat: anti-ABCG2 antibody raised in rat (antibody, V domains shown)
# VH: EVKLVESGGGLVQPGRSLKLSCAASGFTFSRFYMAWVRQAPTKGLEWVAHISHGGDTTYYRDSVKGRFTISRDNAKSTLFLQMDSLRSEDTATYYCTTSAAPWNYVMDGWGLGASVTVSS
# VL: DIVMTQSPSLLSASVGDRVTLTCKGSQNINNFLAWYQQKLGEAPKLLIYKTNSLHTGIPSRFSGSGSGTDYTLTISSLHSEDLATYYCYQYNNGYTFGAGTKLELK
# B2: G2.631 rat: anti-ABCG2 antibody raised in rat (antibody, V domains shown)
# VH: EVKLLESGGGLVQSGRSLKLSCAASGFIFSRFYMAWVRQAPRKGLEWVAYISNGAGSTYYRESVKGRFIISRDNAKSTLYLQMDSLRSEDTATYYCTTVAAPWNYVMDGWGQGASVTVSS
# VL: NIQITQSPSLLSASVGDRVTLSCKGSQNINNYLAWYQQKLGEAPKLLIYKTNSLHTGIPSRFSGSGSGTDYTLTISSLHSEDLATYYCYQYNNGYTFGAGTKLELK
# B3: G2.629 rat: anti-ABCG2 antibody raised in rat (antibody, V domains shown)
# VH: EVQLVESGGGLVQPGRSLKLSCAASGFIFSRFYMAWVRQAPTKGLEWVAYINTGGGTTYYRDSVKGRFTISRDNAKTTLYLQMDSLRSEDTATYYCTTLAAPWNYVMDAWGQGASVTVSSA
# VL: DVVMTQSPSLLSASVGDRVTLTCKGSQNINNFLAWYQQKLGEAPKLLTYKTNSLHTGIPSRFSGSGSGTDYTLTISSLHSEDLATYYCYQYNNGYTFGPGTKLELK
# B4: G2.248 mouse: anti-ABCG2 antibody raised in mouse, listed in Table 2 (antibody, V domains shown)
# VH: QVQLQQPGAELVKPGASVKLSCKTSGFTFSNSYISWLKQKPRQSLEWIAWIYAGTGGTNYNQKFTGKAQLTVDTSSSTAYMQLSSLTSEDSAIYYCATYGNFLYAMDNWGQGTSVTVSS
# VL: DIQMKQSPASLSASVGETVTITCRASGNIHNYLAWYQQKQGKSPQLLVYNTKTLADGVPSRFSGSGSGTQYSLKINSLQPEDFGSYYCQHFWSTPWTFGGGTKLEIK
# B5: G2.256 mouse: anti-ABCG2 antibody raised in mouse, listed in Table 2 (antibody, V domains shown)
# VH: EVQLQQSGPELVKPGASLKISCKTFGYSFTGYYMHWVKQSPEKSLEWIGKIVPSTGGTTYNQKFKAKATLTVDKSSFTAYMQLKSLTSEDSAVYYCAREKVYGYDVYYFDYWGQGTTLTVSS
# VL: DIVMSQSPATLSVTPGDRVSLSCRASQSISDYLHWYQQKSHESPRLLIKYASQSISGIPSRFSGSGSGSDFTLSINSVEPEDVGVYYCQNGHSFPWTFGGGTKLEIK
# B6: G2.642 rat: anti-ABCG2 antibody raised in rat (antibody, V domains shown)
# VH: QIQLVQSGAELVKPGASVKLSCKTSGFTFSSNYISWLRQKPRQSLEWIAWIYSGTGGTYYNQKFTGKAQLTIDTSSNTAYMQLSSLTSEDSAIYYCARHVGLRYWYFDVWGAGTSVTVSS
# VL: DIVLTQSPASLTVSLGQRATISCRASESVDSNGNSFMHWYQQKPGQSPKVLIYRASNLESGVPARFSGSGSRTDFTLTINPVEADDVATYYCQQSNEDPWTFGGGTKLEIKREF
# B7: G2.255 mouse: anti-ABCG2 antibody raised in mouse, listed in Table 2 (antibody, V domains shown)
# VH: EVMLVESGGALVKPGGSLKLSCAASGFTFSNNAMSWVRQTPETRLEWVATITGGGSYTYYPDSVKGRFTISRDNARNTLYLQMSSLRSEDTATYYCASPDGNYEGVLAYWGQGTLVTVSA
# VL: DIQMNQSPSSLSASLGDRVTISCSASQGISNYLNWYQQKPDGTIKLLIYYTSTLHSGVPSRFSGSGSGTDYSLTISNLEPEDIATYYCQHYSSLPWTFGGGTKLEIK
# How the values were obtained:
# [1] = system: Panc1/T300 cells; test: Xenograft study with topotecan-resistant Panc1/T300 cells; format: in vivo
# Protocol: PANC1 (ATCC, CRL-1469) is a pancreatic ductal epithelial carcinoma cell line. The topotectan-resistant Panc1/T300 cells were developed by continuously incubating PANC1 cells in the culture medium containing increasing concentration of topotecan of 25, 50, 100, 200 and 300 nM. […] The arrows indicate the dosing schedule.
# [2] = biological target: T1, ABCG2; format: cell-based
# Protocol: 293T_ABCG2_OX cells were washed several times and aliquoted into 96-well plates as 50 μl aliquots/well at a cell density of 2×10e6 cells per ml in phenol red-free DMEM. Cells were mixed with 50 μl antibodies or the small molecule inhibitors of ABCG2:-fumitremorgin C (FTC), or its tetracyclic analogue K0143, with a final concentration of 1 μM. Cells were then incubated in the presence of 2.5 μM Mitoxantrone 1 h at 37° C. The cells were subsequently washed twice and finally resuspended in […] PBS. Mitoxantrone fluorescence was measured using excitation at 635 nm and emission at 647 nm. Protocols was measuring efflux blockade are found in Szabo E, et al., PLoS One. 2018 Jan. 17; 13(1):e0190629; Deeken J F, et al., Mol Pharmacol. 2009 November; 76(5):946-56).
# [3] = system: cynomolgus ABCG2; test: Flow cytometry binding to 293T cells overexpressing cynomolgus ABCG2; parameters: key to Cynomolgus ABCG2 binding: binding=“+”; non-significant binding=“−”; details: for binding to 293T cells overexpressing cynomolgus ABCG2: in words, FIGS. 7-11, 21
# cynomolgus ABCG2, sequence (as listed by the source): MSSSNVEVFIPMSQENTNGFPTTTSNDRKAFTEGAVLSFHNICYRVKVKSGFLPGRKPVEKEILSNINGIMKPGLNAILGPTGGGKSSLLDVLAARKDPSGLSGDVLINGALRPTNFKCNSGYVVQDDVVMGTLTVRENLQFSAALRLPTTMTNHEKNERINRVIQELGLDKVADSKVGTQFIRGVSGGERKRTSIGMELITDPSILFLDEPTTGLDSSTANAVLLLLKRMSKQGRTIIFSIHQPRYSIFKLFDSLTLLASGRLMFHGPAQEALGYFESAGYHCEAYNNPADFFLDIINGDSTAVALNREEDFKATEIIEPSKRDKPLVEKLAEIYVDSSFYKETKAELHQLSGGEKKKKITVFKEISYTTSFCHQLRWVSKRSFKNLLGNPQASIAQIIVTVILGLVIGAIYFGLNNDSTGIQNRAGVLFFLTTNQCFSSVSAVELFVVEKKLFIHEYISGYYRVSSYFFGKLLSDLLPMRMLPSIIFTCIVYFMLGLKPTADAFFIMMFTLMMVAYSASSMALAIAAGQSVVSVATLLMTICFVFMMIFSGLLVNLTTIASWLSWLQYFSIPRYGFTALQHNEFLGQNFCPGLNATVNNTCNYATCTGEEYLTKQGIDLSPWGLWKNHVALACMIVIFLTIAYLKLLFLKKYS
# Protocol: (§1) Cell Binding Assays. Antibody binding to cells was evaluated by flow cytometry. 293T cells stably transfected to express human or cynomolgus ABCG2 (293T_ABCG2_OX) were washed once in flow cytometry buffer (PBS+2% FBS+0.02% sodium azide), resuspended at 2×10^6 cells/mL in flow cytometry buffer, and dispensed into 96-well microtiter plates at 0.1 mL/well. Recombinant antibodies were added to cells at 5 ug/mL for initial binding confirmation, or serially diluted from 100 ug/mL in flow cytometry buffer. After incubating cells on ice for 30 min, cells were washed twice with flow cytometry buffer. Bound antibody was detected with PE-labeled F(ab′)2 fragment goat anti-human IgG (Jackson ImmunoResearch) and evaluated on an Attune NxT flow cytometer. EC50 is calculated to be the concentration of antibody that gives half maximal response.
# [4] = system: 293T_ABCG2_OX cells; format: cell-based, human; details: for Killing: cell killing by topotecan on 293T_ABCG2_OX cells, viability relative to IgG control
# Protocol: Cytotoxicity Assays. The effect of antibodies on topotecan cytotoxicity was evaluated on 293T_ABCG2_OX cells, 293T cells stably transfected to express ABCG2. Cells were plated in 0.05 mL of Assay Media (DMEM+10% FBS) at 5000 cells/well in white, flat bottom 96-well tissue culture plates. Topotecan was prepared at 2× final assay concentration by serial dilution from 200 uM in assay media containing test antibodies or control antibodies at 100 ug/mL (2× final concentration), or Fumitremorgin C, a small molecule ABCG2 inhibitor at 20 uM (2× final concentration). An equivalent volume (0.05 mL) of the topotecan/antibody mixture was added to the 293T_ABCG2_OX cells in 96-well plates. The plates were then incubated at 37° C., in 5% CO2. After 72-96 hr plates were equilibrated to room temperature and cell viability assessed using Promega® CellTiter-Glo® Luminescent Cell Viability Assay according to the manufacturer's recommended protocol. Luminescence was measured on a Molecular Devices® FlexStation® 3 Multi-Mode Microplate Reader and data analyzed using GraphPad Prism 8.0 software. Half maximal inhibitory concentration (1050) is the concentration of drug (topotecan or other chemotherapy cytotoxic agent) where the response (cell growth) is reduced by 50%.
# [5] = biological target: T1, ABCG2; test: Flow cytometry binding to 293T cells overexpressing human ABCG2 (293T_ABCG2_OX); parameters: key to Binding by FACS: binding=“+”; non-significant binding=“−”; details: for Binding by FACS: 293T_ABCG2_OX cells; for binding to 293T cells overexpressing human ABCG2: in words, FIGS. 7-11, 21
# Protocol: as §1
# [6] = system: A549 (ATCC, CCL-185); test: Xenograft study with NSCLC cell line A549; format: in vivo
molecule,measurement,setting,value
B1,"tumor volume, in combination with topotecan",[1],efficacious in reducing tumor volume
same,Block Efflux,[2],++
same,binding to 293T cells overexpressing cynomolgus ABCG2,[3],strong binding
same,Killing,[4],+++ (viability <10% of IgG control)
same,Binding by FACS,[5],+
same,binding to 293T cells overexpressing human ABCG2,[5],strong binding
B2,Block Efflux,[2],+
same,efflux inhibition activity,[2],strong efflux inhibition activity
same,"tumor volume, in combination with topotecan",[6],efficacious in reducing tumor volume
same,binding to 293T cells overexpressing cynomolgus ABCG2,[3],strong binding
same,effect on topotecan cytotoxicity on 293T_ABCG2_OX cells,[4],significantly increased the cytotoxic activity of topotecan
same,Killing,[4],++ (viability ≥10% and <30% of IgG control)
same,Binding by FACS,[5],+
same,binding to 293T cells overexpressing human ABCG2,[5],strong binding
B3,"tumor volume, in combination with topotecan",[1],efficacious in reducing tumor volume
same,Block Efflux,[2],+
same,Killing,[4],+ (viability ≥30% and <50% of IgG control)
same,Binding by FACS,[5],+
B4,Block Efflux,[2],−
same,Cynomolgus ABCG2 binding,[3],−
same,Killing,[4],− (≥75% of IgG control)
same,Binding by FACS,[5],+
B5,Block Efflux,[2],−
same,Cynomolgus ABCG2 binding,[3],−
same,Killing,[4],− (≥75% of IgG control)
same,Binding by FACS,[5],+
B6,Block Efflux,[2],−
same,Cynomolgus ABCG2 binding,[3],−
same,Killing,[4],− (≥75% of IgG control)
same,Binding by FACS,[5],+
B7,Block Efflux,[2],−
same,Cynomolgus ABCG2 binding,[3],−
same,Killing,[4],− (≥75% of IgG control)
same,Binding by FACS,[5],+
